Data set [1] is described as follows: Release of small molecule Pt species from polymer-linker-Pt complexes at 37° C. in PBS. Particulars: for Percent small platinum released from 1R,2R-DACH Pt(II) complex at 37° C. in PBS, 3 hours / Percent small platinum released from 1R,2R-DACH Pt(II) complex at 37° C. in PBS, 24 hours: 1R,2R-DACH stable chelate; for Percent small platinum released from cis-diammine Pt(II) complex at 37° C. in PBS, 3 hours / Percent small platinum released from cis-diammine Pt(II) complex at 37° C. in PBS, 24 hours: cis-diammine stable ligands. It counts as physicochemical. From the text:
The compound tested comprised a poly(N-(2-hydroxypropyl)methacrylamide (10%)-co-methacrylamide (90%)) backbone polymer and either cis-diammine or 1R,2R-diaminocyclohexane (DACH) as the stable ligands/chelate of the Pt complex. The leaving-ligand comprised an N,O bidentate ligand with amidoaspartate (Asp) or amidomalonate (Ama).

The conditions of data set [2]: 27° C.; cited from earlier work.
Data set [3] is described as follows: Relative toxicity of Compound 1 made by two different processes, body weight in mice. The data set is classed as in vivo, Female C57BL/6 mice. The note with it: murine study; new process versus process of U.S. Pat. No. 7,166,733. The protocol:
Biological evaluation can be carried out with the methods as described below.
Female C57BL/6 mice were randomized into 7 groups of 5 mice each. Each mouse was identified by ear notch and followed individually throughout the study. Animals were observed and weighed prior to dosing for establishment of dosing volumes. All mice were dosed by a single IP injection with either a) Compound 1 made by the processes described herein, b) Compound 1 made by the process described in U.S. Pat. No. 7,166,733, or c) vehicle control. Three doses of each compound were tested: 75 mg Pt/kg, 100 mg Pt/kg and 150 mg Pt/kg. Test compounds were dissolved in isotonic glucose and administered in a volume of 0.4 mL per 20 g body weight. Gross observations and body weights were recorded daily for 14 days. Percent body weight change for each animal on each day was calculated as the percent change from their body weight recorded on day 1 just prior to injection of compounds.

Ends that are not written are not given here. Ama = amidomalonate chelating group bound to Pt

For the compound “Gly-Phe-Leu-Gly-Ama=Pt= (GFLG-Ama; also: Pt complex via Ama (=Pt=))”, in data set [1], the “Percent small platinum released from 1R,2R-DACH Pt(II) complex at 37° C. in PBS, 3 hours” value stood at 0.7%; the “Percent small platinum released from 1R,2R-DACH Pt(II) complex at 37° C. in PBS, 24 hours” value was 2.4%; the “Percent small platinum released from cis-diammine Pt(II) complex at 37° C. in PBS, 3 hours” value stood at 0.7%; the “Percent small platinum released from cis-diammine Pt(II) complex at 37° C. in PBS, 24 hours” value is 2.1%.

Take `NC1CCCCC1N.O.O.O=[N+]([O-])[O-].O=[N+]([O-])[O-].[Pt+2]` (stereo not drawn) [diaqua platinum species, 1R,2R-DACH-diaquaplatinum (II) dinitrate]: in data set [2], the pKa1 is listed as 5.4 and the pKa2 is 7.2.

In the case of poly(HPMA)-GGG-Ama=PtDACH [Compound 1], the safety profile entry in data set [3] is listed as “safety profile identical to that of Compound 1 made by the processes described previously”.

With “Gly-Phe-Leu-Gly-Asp=Pt= (GFLGD; also: Pt conjugation (Asp=Pt=))”, in data set [1], the “Percent small platinum released from 1R,2R-DACH Pt(II) complex at 37° C. in PBS, 3 hours” value is listed as 2.0%; the “Percent small platinum released from 1R,2R-DACH Pt(II) complex at 37° C. in PBS, 24 hours” value was determined as 6.5%; the “Percent small platinum released from cis-diammine Pt(II) complex at 37° C. in PBS, 3 hours” value is given as 1.5%; the “Percent small platinum released from cis-diammine Pt(II) complex at 37° C. in PBS, 24 hours” value amounted to 4.7%.

Source of the values: US20110286958A1, “HPMA POLYMER PLATINUM CHELATES” (Access Pharmaceuticals, Inc., priority 2010, published 2011).
